# Target: human GITR-Fc (human) (UniProt Q9Y5U5)
# Assay: not stated; binding to and dissociation from the GITR-Fc receptors measured in real time, equilibrium binding constants (KD) calculated; instrument and who was immobilised not told in what was shown
# Sequence of human GITR-Fc (human) (Q9Y5U5 26-162): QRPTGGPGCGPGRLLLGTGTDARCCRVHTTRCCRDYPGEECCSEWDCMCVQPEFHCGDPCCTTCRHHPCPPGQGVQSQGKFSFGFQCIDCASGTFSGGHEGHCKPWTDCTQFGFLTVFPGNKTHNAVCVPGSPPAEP
substance,measurement,value
HERA-GITRL (hexavalent TNF receptor agonist; single-chain GITRL-receptor-binding-domain fused to a silenced human IgG1 Fc) (from UniProt Q9UNG2 56-177; Q9UNG2 56-177; Q9UNG2 56-177) (Fc fusion),Kd,0.366 nM
